Assay results reported in PMC4372590, “Autonomously Folding Protein Fragments Reveal Differences in the Energy Landscapes of Homologous RNases H” (PLoS ONE, 2015).

Biological target: T1, T. thermophilus RNase H I_(core) fragment (T. thermophilus)
T1 chain: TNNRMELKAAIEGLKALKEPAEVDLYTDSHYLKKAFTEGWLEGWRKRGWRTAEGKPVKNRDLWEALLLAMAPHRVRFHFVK
Experiment: AUC; equilibrium analytical ultracentrifugation (Beckman XL-I); 25, 50 and 100 uM samples; 24,500, 30,000 and 37,000 rpm; absorbance at 250 nm; global fit to a monomer-dimer equilibrium (dimer to monomers); room temperature, 20 mM sodium acetate pH 5.5, 50 mM potassium chloride
Conditions: both partners purified

- Kd: ~150 µM
- stoichiometry N: 2
B1: T. thermophilus RNase H I_(core) fragment (domain or fragment)
chain: T1 chain
modifications: Printed limits 43-122 use E. coli alignment numbering. The offset is +4 at the N-terminal end (R4=R8, W22=W26, D66=D70) and +5 after the one-residue insertion near 80, so 122=K127. The paper says …
